Legend:
[1] = tested on: DC-SIGN mediated transfer of HIV-1 by Raji-DC-SIGN cells to CD4+ T-lymphocytes; assay: DC-SIGN mediated HIV-1 transfer assay (Raji-DC-SIGN transfer culture assay); type: cell-based; settings: BSSL isolated from S4, at 30 μg/ml and 1.2 μg/ml; P<0.05
Method: DC-SIGN mediated HIV-1 transfer assay. The Raji and Raji-DC-SIGN cells were plated at a concentration of 2×10^4 cells/well in a 96 well format. Dilutions of human milk or human milk compounds were made in PBS containing 10% FCS and spiked with 3.7log TCID50/ml of the appropriate virus before addition to the Raji-DC-SIGN cells. As controls PBS containing 10% FCS was spiked with the same TCID50/ml of the corresponding virus before addition to Raji or Raji-DC-SIGN cells. After incubation the culture was washed with PBS before addition of CD4^+ enriched T-lymphocytes at a concentration of 1×10^5 cells/well with p24 determined on day 7. DC-SIGN specific antibody binding after exposure to human milk. […] The cells were washed and resuspended in 100 μl TSM containing 0.5% bovine serum albumin, (BSA Fraction V, Fatty Acid-Free) (Calbiochem) and the adhesion was measured by flow cytometry (BD Biosciences).
DC-SIGN mediated HIV-1 transfer assay. […] After a two hour incubation the culture was washed with PBS before addition of CD4^+ enriched T-lymphocytes at a concentration of 1×10^5 cells/well with p24 values determined on day 7.

DC-SIGN-Fc = target: T1, DC-SIGN-Fc (Homo sapiens, UniProt Q9NNX6); assay: DC-SIGN-Fc binding ELISA
T1 construct: the extracellular portion of DC-SIGN (amino acids 64 to 404)
T1 sequence (Q9NNX6 64-404): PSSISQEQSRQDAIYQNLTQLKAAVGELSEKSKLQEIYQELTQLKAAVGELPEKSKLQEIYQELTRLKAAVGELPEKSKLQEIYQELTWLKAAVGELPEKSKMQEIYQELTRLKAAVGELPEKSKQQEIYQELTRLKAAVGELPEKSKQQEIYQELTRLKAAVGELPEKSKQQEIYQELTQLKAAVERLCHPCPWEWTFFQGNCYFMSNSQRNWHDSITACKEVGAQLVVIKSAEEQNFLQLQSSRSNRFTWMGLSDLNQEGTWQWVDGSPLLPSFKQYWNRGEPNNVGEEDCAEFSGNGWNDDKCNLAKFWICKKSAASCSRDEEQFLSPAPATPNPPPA
Method: DC-SIGN-Fc binding ELISA. The DC-SIGN-Fc chimera contained the extracellular portion of DC-SIGN (amino acids 64 to 404) fused at the C-terminus to a human immunoglobulin (Ig) G1 Fc fragment and has been previously described (Geijtenbeek et al, 2002). Human milk or human milk compounds were diluted in 0.2M NaHCO3, coated on ELISA plates (maxisorb plate; Nunc) and incubated overnight at 4° C. or 2 hours at 37° C. This was followed by blocking with TSM containing 1% BSA for 30 minutes at 37° C. before addition of soluble DC-SIGN-Fc (5 μg/ml) for 2 hours at RT, the binding was determined by incubation of a peroxidase labeled anti-IgG1 antibody for 30 minutes at RT. DC-SIGN-Fc binding specificity was determined by pre-incubation of the DC-SIGN-FC with either 50 μg/ml DC-SIGN specific mouse antibody AZN-D1 (Geijtenbeek et al, 2000 a) or 10 mM EGTA. Single-cycle-replication transmission assay. The assay was performed as previously described (Groot et al, 2005). In short mDCs and iDCs were incubated in a 96-well-plate (35−50×10^3 DC/well) with human milk for 30 minutes at 37° C. before addition of the virus (5 ng p24/well), which was incubated for 2 hours at 37° C. The DCs were washed twice with PBS before addition of 50×10^3 LuSIV cells. After 24 hours, LuSIV cells were harvested and resuspended in 50 μl lysis buffer (25 mM Tris-Cl 7.8, 2 mM DTT, 2 mM CDTA, 10% glycerol, 1% Triton X100). The cells were then incubated for 45 minutes at room temperature while shaking, followed by 10 minutes centrifugation at 3200×g. The supernatant was transferred to a white-solid 96 well plate (Corning Costar), and 150 μl of lucibuffer (100 μg/ml BSA, 6.6 mM ATP, 15 mM MgSO4, 25 mM glycylglycine) was added. 100 μl of DE(−)Luciferin (Roche Diagnostics GmbH) was injected per well (0.28 mg/ml lucibuffer excluding ATP). 50×10^3 LuSIV cells grown without DC or HIV-1 were used to obtain the background luciferase value.
DC-SIGN-Fc binding ELISA. The DC-SIGN-Fc chimera contained the extracellular portion of DC-SIGN (amino acids 64 to 404) fused at the C-terminus to a human immunoglobulin (Ig) G1 Fc fragment which has been previously described (Geijtenbeek et al, 2002). Human milk or BSSL were diluted in 0.2 M NaHCO3, coated on ELISA plates (maxisorb plate; Nunc) and incubated overnight at 4° C. or 2 hours at 37° C. This was followed by blocking with TSM containing 1% BSA for 30 minutes at 37° C. before addition of soluble DC-SIGN-Fc (5 μg/ml) for 2 hours at RT, the binding was determined by incubation of a peroxidase labeled anti-IgG1 antibody for 30 minutes at RT. DC-SIGN-Fc binding specificity was determined by pre-incubation of the DC-SIGN-Fc with either 50 μg/ml DC-SIGN specific mouse antibody AZN-D1 (Geijtenbeek et al, 2000 a) or 10 mM EGTA.

B1: BSSL: Bile salt stimulated lipase glycoprotein isolated from human milk (S4) (protein, UniProt P19835 21-753, looked up)
Bile salt-activated lipase: AKLGAVYTEGGFVEGVNKKLGLLGDSVDIFKGIPFAAPTKALENPQPHPGWQGTLKAKNFKKRCLQATITQDSTYGDEDCLYLNIWVPQGRKQVSRDLPVMIWIYGGAFLMGSGHGANFLNNYLYDGEEIATRGNVIVVTFNYRVGPLGFLSTGDANLPGNYGLRDQHMAIAWVKRNIAAFGGDPNNITLFGESAGGASVSLQTLSPYNKGLIRRAISQSGVALSPWVIQKNPLFWAKKVAEKVGCPVGDAARMAQCLKVTDPRALTLAYKVPLAGLEYPMLHYVGFVPVIDGDFIPADPINLYANAADIDYIAGTNNMDGHIFASIDMPAINKGNKKVTEEDFYKLVSEFTITKGLRGAKTTFDVYTESWAQDPSQENKKKTVVDFETDVLFLVPTEIALAQHRANAKSAKTYAYLFSHPSRMPVYPKWVGADHADDIQYVFGKPFATPTGYRPQDRTVSKAMIAYWTNFAKTGDPNMGDSAVPTHWEPYTTENSGYLEITKKMGSSSMKRSLRTNFLRYWTLTYLALPTVTDQEATPVPPTGDSEATPVPPTGDSETAPVPPTGDSGAPPVPPTGDSGAPPVPPTGDSGAPPVPPTGDSGAPPVPPTGDSGAPPVPPTGDSGAPPVPPTGDSGAPPVPPTGDSGAPPVPPTGDAGPPPVPPTGDSGAPPVPPTGDSGAPPVTPTGDSETAPVPPTGDSGAPPVPPTGDSEAAPVPPTDDSKEAQMPAVIRF
**Q.** B1 was tested. Which “inhibition of DC-SIGN mediated HIV-1 transfer” value [1] did it give?
**A.** significant inhibition

**Q.** And the DC-SIGN-Fc binding (DC-SIGN-Fc; BSSL at 30 μg/ml, 3 μg/ml and 0.3 μg/ml, P<0.01)?
**A.** binding

**Q.** And the “effect of trypsinization of purified BSSL” value (DC-SIGN-Fc; binding not fully alleviated, data not shown)?
**A.** trypsin sensitive

**Q.** What about the “effect of heat treatment of purified BSSL” value (DC-SIGN-Fc; data not shown) of the same molecule?
**A.** heat resistant

Reference: US20090228996A1, “Means and Methods for influencing Interactions Between Dc-Sign and Dc-Sign Ligands” (priority 2006, published 2009)
